In patent US20090053807 (published 2009):
Where two headings read alike, the source gives them in different places. Positions of bridges follow the written chain, without caps; N, C: chain ends. Non-standard residues stand in square brackets, D forms with d. No end group written: not given here. Hyp = O=C(O)[C@@H]1C[C@@H](O)CN1; Tic = O=C(O)[C@@H]1Cc2ccccc2CN1; Abu = CC[C@H](N)C(=O)O

Tests used:
[1] = molecular target: T1, human insulin receptor (HIR) (human, UniProt P06213); experiment: competition
mIR = mIR (human, UniProt P06213); experiment: FP vs FITC-RP9
[2] = molecular target: T1, human insulin receptor (HIR); experiment: competition; remark: listed apart in the source
[3] = molecular target: T1, human insulin receptor (HIR); experiment: competition; remark: listed apart in the source

Binder | Kd [1] [µM] | also measured
GSLDESFYDWFERQLGKK [S371 (RP9)] | – | IC50 (mIR): 0.049 µM
AFYEWFAKK [S214] | > 20 | –
FYDWFKK [S166] | > 20 | –
FHENFYDWFVAQVSKK [S108] | 7.5 | –
AFYDWFAKK [S167] | > 20 | –
AFYDWF [S182] | > 20 | –
[dF][dH][dE][dN][dF][dY][dD][dW][dF][dV][dR][dQ][dV][dS][dK][dK] [S114] | 8.3 | –
GGTVWPGYEWLRNA [E8 (D120)] | – | IC50 (mIR): > 100 µM
AFYDWFAK [S180] | > 20 | –
AHENFYDWFVRQVSKK [S113] | 5.9 | –
AFYDWFA [S181] | > 20 | –
SDGEYNAIELLS [S118] | 2.4 | –
FYDWFA [S183] | > 20 | –
Ac-FYDWF [S184] | > 20 | –
FHENFYDWFVQRVSKK [H2C (D117)] | – | IC50 (mIR): 0.77 µM
HPTSKEIYAKLLK [S122] | 93 | –
FYDWF [S165] | > 20 | –

Further lines, with some results ahead:

Kd [1] [µM] | Binder | also measured
> 20 | FHENFYDWAVRQVSKK [S223] | –
0.45 | RD[Hyp]FYDWEDD[dI] [S268] | –
> 20 | AFYKWFAKK [S216] | –
> 20 | [Abu]CLEE[dW]GASL[Tic]QCSG (disulfide 2-13 (inferred)) [S266] | –
> 20 | GFREGQRWYWFVAQVT [S278] | –
> 20 | APVSTEELRWGALLFGQWAG [S283] | –
> 20 | FHENFYDAFVRQVSKK [S222] | –
> 20 | ESFYDWFER [S401] | –
> 20 | GSLDESFYDWFE [S397] | –
> 20 | GSLDESFYDWFER [S396] | Kd [2]: > 20 µM; Kd [3]: > 20 µM
> 20 | AFYGWFAKK [S215] | –
> 20 | FHENAYDWFVRQVSKK [S219] | –
> 20 | FHENFADWFVRQVSKK [S220] | –
3.7 | PLRESRNFYDWFVQQLE [S366] | –
> 20 | DPFYQGLWEWLRESGEE [S289] | –
> 20 | WFGYAWLS [S317] | –
> 20 | HLSVGEELSWWVALLGQWAR [S282] | –
> 20 | ALEEEWAWVQVRSIRSGLPL [S284] | –
> 20 | ESFYDWFE [S402] | –
> 20 | GSLDESFYDWF [S398] | –
> 20 | ESFYDWF [S403] | –
